Experimental data as given in paper PMC6778109.

Target: Edc3 IDR
Experiment: methyl TROSY NMR titration

other: chemical shift perturbation Δδ of the introduced methyl group (+ 6x Edc3 IDR)	other: chemical shift perturbation Δδ of the introduced methyl group (+ 4x Edc3 IDR)	Substance
0.087 ppm		Edc3 YjeF_N domain (from UniProt O94752) K392M
0.078 ppm		Edc3 YjeF_N domain (from UniProt O94752) Q447I
	0.391 ppm	Edc3 YjeF_N domain (from UniProt O94752) V253I
	0.104 ppm	Edc3 YjeF_N domain (from UniProt O94752) W393M
